Measured values from the supplement of paper PMC7125110.
± gives the standard error. Variants at the floor of the assay were thinned out.

B1: glmS ribozyme (parent)
chain: AUAAAAGCGCCAGAACUACAGAAAUGUAGUUGACGAGGAGGAGGUUUAUCGAAUUUUCGGCGGAUGCCUCCAAA

How the values were obtained:
Conditions in all cases: with glucosamine-6-phosphate
glucosamine-6-phosphate [1] = variants of: B1; test: self-cleavage kobs at 40 uM GlcN6P; higher = faster cleavage; RNA array
Procedure, shortened: (§1)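 Glucosamine-6-phosphate, from 40 μM to 10 mM in HEPES/KCl/Mg(OAc)2 buffer, was flowed over sequenced MiSeq chips carrying barcoded ribozyme variants transcribed in situ by E. coli RNA polymerase. A hybridised Cy3 probe tracked the variants at 37 °C as tiles were imaged over ~14 h. kobs, kcat and KM were obtained by fitting normalised per-tile medians to exponential decays and then applying weighted Michaelis–Menten fits across concentrations.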

glucosamine-6-phosphate [2] = variants of: B1; test: self-cleavage kobs at 160 uM GlcN6P; higher = faster cleavage; RNA array
Procedure, shortened: as §1

glucosamine-6-phosphate [3] = variants of: B1; test: self-cleavage kobs at 640 uM GlcN6P; higher = faster cleavage; RNA array
Procedure, shortened: as §1

glucosamine-6-phosphate [4] = variants of: B1; test: self-cleavage kobs at 10000 uM GlcN6P; higher = faster cleavage; RNA array
Procedure, shortened: as §1

glucosamine-6-phosphate [5] = variants of: B1; test: self-cleavage kobs at 2500 uM GlcN6P; higher = faster cleavage; RNA array
Procedure, shortened: as §1

Row | Variant | self-cleavage kobs at 40 uM GlcN6P (glucosamine-6-phosphate [1]) | self-cleavage kobs at 160 uM GlcN6P (glucosamine-6-phosphate [2]) | self-cleavage kobs at 640 uM GlcN6P (glucosamine-6-phosphate [3]) | self-cleavage kobs at 10000 uM GlcN6P (glucosamine-6-phosphate [4]) | self-cleavage kobs at 2500 uM GlcN6P (glucosamine-6-phosphate [5])
1 | G40U G43U | < 1e-05 s⁻¹ | < 1e-05 s⁻¹ | < 1e-05 s⁻¹ | < 1e-05 s⁻¹ | –
2 | G41U U49C C61G | < 1e-05 s⁻¹ | – | – | < 1e-05 s⁻¹ | –
3 | U45C C61U | < 1e-05 s⁻¹ | < 1e-05 s⁻¹ | < 1e-05 s⁻¹ | < 1e-05 s⁻¹ | –
4 | U45C C61G | < 1e-05 s⁻¹ | < 1e-05 s⁻¹ | < 1e-05 s⁻¹ | < 1e-05 s⁻¹ | < 1e-05 s⁻¹
5 | G41U G44U A64U | < 1e-05 s⁻¹ | – | – | < 1e-05 s⁻¹ | –
6 | G44U G66U U69G | < 1e-05 s⁻¹ | – | – | – | –
7 | U45G G60C | < 1e-05 s⁻¹ | – | < 1e-05 s⁻¹ | – | –
8 | A42U A48C | < 1e-05 s⁻¹ | < 1e-05 s⁻¹ | < 1e-05 s⁻¹ | – | < 1e-05 s⁻¹
9 | U46A G60U | < 1e-05 s⁻¹ | < 1e-05 s⁻¹ | – | – | < 1e-05 s⁻¹
10 | G43C U46G U69C | < 1e-05 s⁻¹ | – | – | – | –
11 | G44C C50A U55A C70U | < 1e-05 s⁻¹ | – | – | – | –
12 | G41C G59U | < 1e-05 s⁻¹ | – | < 1e-05 s⁻¹ | < 1e-05 s⁻¹ | < 1e-05 s⁻¹
13 | G43A C58G | < 1e-05 s⁻¹ | < 1e-05 s⁻¹ | < 1e-05 s⁻¹ | < 1e-05 s⁻¹ | < 1e-05 s⁻¹
14 | G43U U47G | < 1e-05 s⁻¹ | < 1e-05 s⁻¹ | – | – | –
15 | G40U G44A U57C C61G G66U | < 1e-05 s⁻¹ | – | – | – | < 1e-05 s⁻¹
16 | U45C G59U | < 1e-05 s⁻¹ | < 1e-05 s⁻¹ | < 1e-05 s⁻¹ | < 1e-05 s⁻¹ | –
17 | G43C C50A U65C C68U | < 1e-05 s⁻¹ | – | – | < 1e-05 s⁻¹ | –
18 | A42G U69C C71A | 0.000273 ± 0.00013 s⁻¹ | – | – | – | 0.00647 ± 0.0028 s⁻¹
19 | G43C U65A | < 1e-05 s⁻¹ | – | < 1e-05 s⁻¹ | – | < 1e-05 s⁻¹
20 | G43C G62C | < 1e-05 s⁻¹ | < 1e-05 s⁻¹ | < 1e-05 s⁻¹ | – | < 1e-05 s⁻¹
21 | G43C G62U | < 1e-05 s⁻¹ | < 1e-05 s⁻¹ | < 1e-05 s⁻¹ | < 1e-05 s⁻¹ | < 1e-05 s⁻¹
22 | G43A U47G U54A | < 1e-05 s⁻¹ | – | – | – | –

Row | Variant | self-cleavage kobs at 40 uM GlcN6P (glucosamine-6-phosphate [1]) | self-cleavage kobs at 160 uM GlcN6P (glucosamine-6-phosphate [2]) | self-cleavage kobs at 640 uM GlcN6P (glucosamine-6-phosphate [3]) | self-cleavage kobs at 10000 uM GlcN6P (glucosamine-6-phosphate [4]) | self-cleavage kobs at 2500 uM GlcN6P (glucosamine-6-phosphate [5])
23 | G41A U56A | 4.59e-05 ± 9.3e-06 s⁻¹ | 8.06e-05 ± 1.3e-05 s⁻¹ | 0.000252 ± 2.8e-05 s⁻¹ | 0.00063 ± 8.8e-05 s⁻¹ | 0.00173 ± 0.00036 s⁻¹
24 | G41A C61U C68A C70G C71A | < 1e-05 s⁻¹ | – | – | – | –
25 | G44U C50U A53C | < 1e-05 s⁻¹ | – | < 1e-05 s⁻¹ | – | < 1e-05 s⁻¹
26 | G43C U46A | < 1e-05 s⁻¹ | – | – | < 1e-05 s⁻¹ | < 1e-05 s⁻¹
27 | U45C G63A | < 1e-05 s⁻¹ | < 1e-05 s⁻¹ | – | < 1e-05 s⁻¹ | < 1e-05 s⁻¹
28 | G44A C70U | < 1e-05 s⁻¹ | < 1e-05 s⁻¹ | – | – | –
29 | G44A C70G | < 1e-05 s⁻¹ | < 1e-05 s⁻¹ | < 1e-05 s⁻¹ | < 1e-05 s⁻¹ | < 1e-05 s⁻¹
30 | U45A U47G U57A | < 1e-05 s⁻¹ | – | – | 0.000108 ± 2.3e-05 s⁻¹ | –
31 | A42G G60A C70G | < 1e-05 s⁻¹ | – | – | – | –
32 | G44U A53G C70A | < 1e-05 s⁻¹ | – | – | < 1e-05 s⁻¹ | < 1e-05 s⁻¹
33 | G40U U56A G62U C67G | < 1e-05 s⁻¹ | < 1e-05 s⁻¹ | < 1e-05 s⁻¹ | – | < 1e-05 s⁻¹
34 | G40U U45G C67U | < 1e-05 s⁻¹ | < 1e-05 s⁻¹ | – | 5.49e-05 ± 1.2e-05 s⁻¹ | –
35 | A42G U55A | 0.00136 ± 0.00015 s⁻¹ | 0.00202 ± 0.00052 s⁻¹ | 0.0283 ± 0.0091 s⁻¹ | 0.0423 ± 0.013 s⁻¹ | 0.0289 ± 0.0077 s⁻¹
36 | U45C A64G | 0.000103 ± 1.8e-05 s⁻¹ | – | – | 0.00342 ± 0.00055 s⁻¹ | 0.00182 ± 0.00053 s⁻¹
37 | A42G U47G G63U | < 1e-05 s⁻¹ | – | – | – | –
38 | G43C U56C | < 1e-05 s⁻¹ | < 1e-05 s⁻¹ | < 1e-05 s⁻¹ | < 1e-05 s⁻¹ | –
39 | U45A G66A | 0.000969 ± 0.00013 s⁻¹ | 0.00224 ± 0.00044 s⁻¹ | 0.00848 ± 0.0021 s⁻¹ | 0.0359 ± 0.011 s⁻¹ | 0.00884 ± 0.002 s⁻¹
40 | A42C U46G | < 1e-05 s⁻¹ | < 1e-05 s⁻¹ | – | – | –
41 | A42U U46C G51C C61A | < 1e-05 s⁻¹ | – | – | – | –
42 | A42G G43C U45G A64U | < 1e-05 s⁻¹ | – | – | < 1e-05 s⁻¹ | –
43 | G43A A48U | < 1e-05 s⁻¹ | < 1e-05 s⁻¹ | < 1e-05 s⁻¹ | < 1e-05 s⁻¹ | < 1e-05 s⁻¹
44 | G43C G59U | < 1e-05 s⁻¹ | < 1e-05 s⁻¹ | < 1e-05 s⁻¹ | < 1e-05 s⁻¹ | < 1e-05 s⁻¹
